# Experimental data published in the DeepSol protein solubility set.
# Test: soluble on expression in E. coli; label from the status in PepcDB or PDB records
row,Sequence,soluble on expression in E. coli
1,MTNSSSSKKQAQDQPETSEPTLKSLKTKMTKSDEKQKKLKDIEISVPIVYGNVAFWLGKKASEYQSHKWAVYVRGATNEDISVVVKKVVFQLHSSFNSPTRVIEEPPFEVSESGWGEFEIAMTLHFHSDVCDKPLSLYHHLKLYPEDESGPLTMKKPVVVESYDEIVFPDPSESFLARVQNHPALTFPRLPSGYNLPAPMQVEDTGKKKRGDTKDHSLGQWFMSFSEADELLQLAAARQQVQAHIAKLRRQISLLEGQNQTVKTGSDL,not soluble
2,MGSDKIHHHHHHMSDNDLQRRILDAVDAGFDAQLATTRDFVAIPSTRGAEGPCQDMIGDLLRQRGYEVDDWHIDLDDLKDLRGYGPIEHDFSKARTVVGTYRPSTNAGRSLILQGHCDVVPAGPLEMWDTPPFSPVIKQGRMYGRGACDMKSGTIGALYALDAIKAAGLRPTGRIHFQSVIEEESTGVGALSTLQRGYRADACFIPEPTGGKMVRSQVGVIWFRLKVRGYPVHVATAGTGSNAITAAYHLIDALGKLEEEWNRRAASDPHFKTLAHPINFNPGIIKGGDWASSVPAWCDVDCRIAILPGWSVADHQAEILACVSAAARDHRFLSNNPPQVEWSGFLSEGYELKNAAEPEAAFGKAYQAVYGSEVEDLVFTALTDTRFYGLNYNIPSLCFGASGEAMHGFNEYIDLESLRQSTKATALFIAEWCGVEPA,not soluble
3,MGSDKIHHHHHHMKKSLIELLEARQKATDELAEVKLKKATIEAKMKSSTIEDDDLEQLKTDAESLVSQATAIKETIAGLDSDIEETEEELSKAAKIIKEKQKGNTPMDYLKTKAAALDFVRILMDNEGSANSARKAWEANLVEKGVTNLTKILPEPVLIAIQDAFTNYNGILNHVSKDPRYAVRVALQTQVSQAKGHKAGKTKKDEDFTFLDFTINSATVYIKYAFEYSDLKKDTTGAYFNYVMKELAQGFIRTIERAVVIGDGKSNSAEDKITEIKSIAEETEANLFETQEINVAGVFDNAVLETLVAGIDKMVPNTTPILVTSKAIARKLKLVKDAEGRYIDPQPFAPIATNGNVIAGFQVYIYDWMDGATNPIIAFADQAYKMIGDEAAADRFDDYDVTVNRRHIELASVMGGRLAQYKSAVKFTNPAG,not soluble
4,MGSDKIHHHHHHMAIKNVSIVYPNRFGGGIACLAVHVLTSHLNKYRDISANAYFIENYSKIKNSDAILITLQYENDYFNVVKIVKELKAQNPNAIFIAGGPCAISNPLPIQEFFDVFVVGEIEGTDTMYQLINGNFEIPGVYVPKTYNNEKIKRIYPKKLGIDDYPISQVTHESGAYGKAYLLEIGRGCIRNCKFCMAKCIYAPPRYRKIEDLKHLVDEGLKNTDADKVSLIAPSVSDYRYVLDLCAHISEKNVSISPSSLRADTITDELLEYLNLKTLTIAPEAGSEVLRKKIDKGITEENILNAVDIAKTHGISTVKLYYMVGFPDETEEDIEEIINLTKKIKDNVRKVDVSINPMVPKPHTPFEDFEFDMDSKTKIKYIEKSLRKIKVSVDFEKFNSMVAQTVLARGGSELSKVLNESRNTIELIKNVDLDNYINKIEEKPWDFIEI,not soluble
5,GPGSMTSASKKSTEENSEEVECTNSSRKRRMRQRERNIYISECHGIKELSSLVRRGFQQIMTARGLFISGCPDLVKLDDGTSGEEEGGEYYRQLEEVQVSRCPRLTDLSGLGKCKYLKVVDISDCRKLENIGELKSCRTLEKLALSRCTGLVDVNLRGFGKLLSFDIFKCANLTKICGLFGCPILETLTVEECGDVKEMEVRTIRGRVETLRIAGKRAMENVGFLCLFTNMKKLALCGCVGTVAEVLGEEAGGLPRLKWLELIGIRMERQMKDKPGNGVAATEEGNNAKRVLPMIVQNE,not soluble
6,MSLELKKFFVLVLLLGSVCPAFCGGDTLHCRFYFPVGSAIPDLSYRDNGPRLDSFLSSIRSLQERAVLRRVRLRSGASPEGNSMLNRRLSDERLVSLRAVMRERLSVPDSVLVCLSSGEDWEGLSVLVGESDMPCRDEVLRILRDTPVWVVRGGKVVDSRKRQLMNLRGGSVWRYMAEHFFPELRNCTVVECEFGPVISGNDREIAVYQKEAEARDTVILRDTVERTVVIRDTVQVPASVGNALKPFYMGLKTNLLYDALLVPNLGVEFYLGRGWSFGGNWMYAWWKSDRHHNYWRIYGGELALRKYFGRRAAEKPLAGHHLGLYGQLFTYDFEVGGTGYMGGRPGGTLWEKMNYAVGLEYGYSLPIARRLNLDFVIGVGYWGGEYHKYDPVDGCYVWKETLQRHWFGPTKAEVSLVWLLGRGNHNEKGGKEGHHHHHH,not soluble
7,MASYSDIVDSVRKCQFSPLYLLAGEEPFYIDELATLLETHVVPVDEWDFNRVILYGDKTSVADIANEARRFPMMGRRQLIVVREAQLVDNIDLLEAHYGTFPDTTILVIAYKKKPDKRKAFYTKAEKFGKVFVSETIPDYKMPDFILSAAAGKKLSVSPEVAYMLADYLGNDLEKLMNELDKLILITQDSRGVVTSEIVEQHIGVSKSFNNFELLRAIVNRETGKTFRIAHYFARNEKEHPIQATLPVLFNYFSNLMIVCYLPQKKPDAIMKALSIRNFQVRDYMTGLKMYSTRKVFDIIHEIRMTDARSKGVDTTGTFAGSGDLLRELLHFIFH,not soluble
8,MSLKTKTFKMQLQFLSEQNLEINNNNQLLNQEKITYLQKIEQLKCKLEYQERMIKDSEKIREESFASAKAALFDLGKDLSKQLIEIHKMENNTTRELAEKNIETASQKFNTELERLITMVGALNKDIEQSKGTVDLIKQSLLSPIGAGLLSEITLENILKSSGLRPNLDFIMQYSLTTSDSVKLRPDAIIFLPSGNLMVIDSKASKFLVDSQDNSVHLSKTMNYHLKTLTNKDYAENILTNLNKKTQNFNNVITLMFLPTEQAVEKVIAANPEFLQKAWGCNIFPVGPAGLMNMLSFAKFQITDNRRSENYKVIIEEVRKLLSSIGTIADYSKKIGYNLQNMVTNYDKFAASFNRNVMSRVKSIQKLGIDSGNKIIPATLERYQIVSAKSEIIEVDVENQHKEGHHHHHH,not soluble
9,MFSTKKSQGNLHKYIQRQSTDEFAVKAREHNYRARSAFKLIEINEKFKFLKPESTVIDIGCAPGSWLQVVVQKCPNGYASGVDLQNVLPIRGADILSLSDITDPAVKLKIREKLAHRQVDVVLSDMAPNPTGDNATDHLRLIELCRSVFRLFSVENEIELVKNGVYLCKIWDGSARAEFVRELSDRFSTVKTVKPTACRDNSAELYLFCRNFKK,not soluble
10,MRLCSVALLLFTVAYVKSAIDINVPSTLYIKEGDTGTIGLPVSANYRREVHNPKGTMDEQLYRVCNGKNKTTCGFWEDVKTKKKVKSGVTTYNKNKKALVIKKMLVSDFGNYMTGNKKKSRYVQQLVSLGK,not soluble
11,MQVDADLRPILGPQLVRLDPMRVKQLQDPIVYEAIDNLAKLSAHCLQLRTPLTTCEKLINSDSTLYLSWKYDEEEKVSRLMGFAKVGRKKLFLYDSQMQTYEGEILCLLDFYVHFSCQRQGVGQQILDYMFSQEHTEPYQLALDNPSVTLLGFMSQKYGLIKPVWQNTNFVVFEELFLALSAENGIEKPPPDGWRRPMTPRRLGTGMTDTRWLQHAVSGHQSKGNAMAAPVDADMTPQGALSNRAHQAKARKAHILSSKPLW,soluble
12,MGSSHHHHHHSSGLVPRGSVCMTEIATTSGARSVGLLSVGAYRPERVVTNDEICQHIDSSDEWIYTATGIKTRRFAADDESAASMATEACRRALSNAGLSAADIDGVIVTTNTHFLQTPPAAPMVAASLGAKGILGFDLSAGCAGFGYALGAAADMIRGGGAATMLVVGTEKLSPTIDMYDAGNCFIFADGAAAVVVGETPFQGIGPTVAGSDGEQADAIRQDIDWITFAQNPSGPRPFVRLEGPAVFRWAAFKMGDVGRRAMDAAGVRPDQIDVFVPHQANSRINELLVKNLQLRPDAVVANDIEHTGNTSAASIPLAMAELLTTGAAKPGDLALLIGYGAGLSYAAQVVRMPKG,soluble
13,MDSNLMSSVSTSAILGGENFADLFAESLKSQDMKSGEVISAEVVRVDHNFVVVNAGLKSEALIPLEEFLNDQGELEVQPGDFVSVAIDSLENGYGDTILSRDRAKRLSAWLQLEQALENGELVTGTITGKVKGGLTVMTNGIRAFLPGSLVDLRPVKDTTPYEGKTLEFKVIKLDRKRNNVVLSRRQVLEASMGEERQKLLETLHEGAVVKGVVKNITDYGAFVDLGGIDGLLHITDMAWRRVRHPSEVLQVGQEVEAKVLKFDQEKSRVSLGVKQLGEDPWVGLARRYPQGTRLFGKVTNLTDYGAFVEVEAGIEGLVHVSEMDWTNKNVDPRKVVTLGEEVEVMVLEIDEDRRRISLGMKQCRQNPWEEFATNFKRGDKVRGAIKSITDFGVFVGLPGGIDGLVHLSDLSWTESGEEAVRNFKKGDELEAVVLGIDTEKERISLGIKQLEGDPFNNFVATHDKGAVVPGTIKSVEPKGAVITLSVDVEGYLRASEISSGRVEDATTVLKAGENIEAMIVNIDRKARSIQLSIKARDNAETAETIQRMSEASASSGTTNLGALLKAKLDQQRNDGLEHHHHHH,not soluble
14,MNQTDTSPIRLRRSWNTSEIEALFDEHAGRIDPRIYTDEDLYQLELERVFARSWLLLGHETQIRKPGDYITTYMGEDPVVVVRQKDASIAVFLNQCRHRGMRICRADAGNAKAFTCSYHGWAYDTAGNLVNVPYEAESFACLNKKEWSPLKARVETYKGLIFANWDENAVDLDTYLGEAKFYMDHMLDRTEAGTEAIPGVQKWVIPCNWKFAAEQFCSDMYHAGTTSHLSGILAGLPEDLEMADLAPPTVGKQYRASWGGHGSGFYVGDPNLMLAIMGPKVTSYWTEGPASEKAAERLGSVERGSKLMVEHMTVFPTCSFLPGINTVRTWHPRGPNEVEVWAFTVVDADAPDDIKEEFRRQTLRTFSAGGVFEQDDGENWVEIQHILRGHKARSRPFNAEMSMDQTVDNDPVYPGRISNNVYSEEAARGLYAHWLRMMTSPDWDALKATR,soluble
15,MGSDKIHHHHHHMEKMLYTAASGAVRILEAQSIRANNLANAETAGFKADLERVNAVPLVAQGNSLNTRVMAQTESSGFSQQSGVINPTGRSLDLAIRDRGLFSVAVDGAEAYTRSGAIETNAEGQLTIDGRPVLGIDGPIALPEYKDVFVGEDGTVSVLPAEGGIIEEVGRLKLVNPDFALMQKGQDGLLYRRDGQAVPQDEGVLVDSGFLESSNVQAVSELIASMDLSRQFEIQVKLMKSAEKLAEAGNRLLGNV,not soluble
16,DALNRFHDQPLNETELLALMGEMEGKISGGIHYDNVAPCYLGGVQLMLEELGIISQEVPCFDEWYWVMAYPGIKVSTAEAREILPSQYRRQDIIAHGRHLAGFIHACHSGQPELAAKMIKDVIAEPYREKLLPGFANARQ,not soluble
17,MSNWTTYPQKNLTQAEQLAQLIKEADALVVGIGAGMSAADGFTYIGSRFETAFPDFIAKYQFLDMLQASLFDFEDWQEYWAFQSRFVALNYLDQPVGQSYLDLKEILGTKDYHIITTNADNAFWVAGYDPHNIFHIQGEYGLWQCSQHCHQQTYKDDTVIRQMIAEQKNMKVPGQLIPHCPECEAPFEINKRNEEKGMVEDADFHAQKARYEAFLSEHKEGKVLYLEIGVGHTTPQFIKHPFWKRVSENPNALFVTLNHKHYRIPLSIRRQSLELTEHIAQLISATKTIYQKS,not soluble
18,MEKFDVIIIGAGPAGLFAAYELVERSNMKVLIIDEGGDVDQRVCPMDQLGYCIGCKPCHIMSGVGGAGGLSDGTVNLRPDIGGDLTELTNDENYSWQLVWEVDQILLKHGAPRNLYKGDPDQIRYWERKAAQAGVKFIPIIQRHIGSDNTPRVIKSIKQYLESKGVKFLLWTKALEFNKGWVKVRRGKDVFTIEGKYIIVAPGRGGAEWFHEIAQKIGLKARHGPIDVGVRVEVPAIIMEPITSINHDPKFHIYTDTYDDFVRTFCTNPYGFVVEERYDGYVGVNGHSMRNKKSNNTNFAFLTRIELTEPVEDTTAYGRSIAQLATTIGGGRPILQRLGDLRRGRRSTWSRIRKSNVEPTLKHVTPGDIAMALPHRVVTNIIEGLEKLDKVIPGVASDHTLLYAPEIKYYAMKVEVNELLETSIENVFAAGDGAGLSRDIVNAAATGIMAARGILVKEGLYNLKDFKKPGNWKEKIESLEPEELEHHHHHH,soluble
